From patent US20210070829A1 (ZHEJIANG DOER BIOLOGICS, published 2021)

Assays:
Glucagon receptor = test: cell-based or functional assay
human GLP-1 receptor = human GLP-1 receptor (human, UniProt P43220 24-463); test: cell-based or functional assay

Row | GCGR agonist activity EC50 (luciferase reporter) (Glucagon receptor) | GLP-1R agonist activity EC50 (luciferase reporter) (human GLP-1 receptor) | Binder
1 | 26.7 nM | 18.5 nM | C788L1F5 (Fc fusion) HSQGTFTSDYSKQMDSQRAQDFVQWLMNTKRNRNNIAGGGGSERKCCVECPPCPAPPVAGPSVFLFPPKPKDTLMISRTPEVTCVVVDVSHEDPEVQFNWYVDGVEVHNAKTKPREEQFNSTFRVVSVLTVVHQDWLNGKEYKCKVSNKGLPSSIEKTISKTKGQPREPQVYTLPPSREEMTKNQVSLTCLVKGFYPSDIAVEWESNGQPENNYKTTPPMLDSDGSFFLYSKLTVDKSRWQQGNVFSCSVMHEALHNHYTQKSLSLSPG
2 | 1.27 nM | 1.41 nM | C627L13F10 (Fc fusion) HSQGTFTSDYSKQMDSQRAQDFVQWLMNGGPSSGAPPPSGGGGAGGGGAGGGGAAESKYGPPCPPCPAPEAAGGPSVFLFPPKPKDTLMISRTPEVTCVVVDVSQEDPEVQFNWYVDGVEVHNAKTKPREEQFASTYRVVSVLTVLHQDWLNGKEYKCKVSNKGLPSSIEKTISKAKGQPREPQVYTLPPSQEEMTKNQVSLTCLVKGFYPSDIAVEWESNGQPENNYKTTPPVLDSDGSFFLYSRLTVDKSRWQEGNVFSCSVMHEALHNHYTQKSLSLSLG
